Residue numbers refer to the chain shown, from its start. Names and notes keep the numbering of the source.
Target: the molecule itself
Test: dynamic light scattering

B1: recombinant Arc S67D, GST tag cleaved (natural protein)
chain: MELDHMTTGGLHAYPAPRGGPAAKPNVILQIGKCRAEMLEHVRRTHRHLLTEVSKQVERELKGLHRDVGKLENNLDGYVPTGDSQRWKKSIKACLCRCQETIANLERWVKREMHVWREVFYRLERWADRLESMGGKYPVGSEPARHTVSVGVGGPEPYCQEADGYDYTVSPYAITPPPAAGELPEQESVEAQQYQSWGPGEDGQPSPGVDTQIFEDPREFLSHLEEYLRQVGGSEEYWLSQIQNHMNGPAKKWWEFKQGSVKNWVEFKKEFLQYSEGTLSREAIQRELELPQKQGEPLDQFLWRKRDLYQTLYVDAEEEEIIQYVVGTLQPKLKRFLRHPLPKTLEQLIQRGMEVQDGLEQAAEPSGTPLPTEDETEALTPALTSESVASDRTQPE
**Q.** Does B1 bind?
**A.** Result: binds

B2: recombinant Arc T278D, GST tag cleaved (natural protein)
chain: B1 chain with D67S, T278D
**Q.** Does B2 bind?
**A.** Result: binds
